The supplement of paper PMC10126150
± gives the standard deviation of the averaged measurements.

Tested on: ATP
Experiment: switch fluorescence ratio, 500 uM ATP over buffer (Cy3 cluster intensity, sum of 5 cycles each) (fold (ratio)); higher = stronger signal-on switching upon ATP binding; sequences stand for … in TCGTCGGCAGCGTCAGATGTGTATAAGAGACAGTTTTTTTTTTTTTTTTTTTTTTTTT…TC
Conditions: aptamer strand: ATP DNA aptamer (quencher-CACCTGGGGGAGTATTGCGGAGGAAGG + anchor), 100 nM annealed; ATP concentration: 500 uM
Procedure, shortened: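 Values give the fluorescence ratio for each switch-domain sequence, averaged from per-cluster ratios of summed target-cycle to summed buffer-cycle Cy3 intensity. The Cy3-labelled switching-strand clusters sat on a modified Illumina MiSeq flow-cell, were annealed to 100 nM quencher-labelled ATP aptamer, and were imaged in selection buffer, then after 15 min with 500 uM ATP at 22 °C. Five cycles ran with NaOH stripping and re-annealing between them, and clusters outside 100-1000 RFU were excluded.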
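Further: ATP exposure 15 min at 22 °C before imaging.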

Sequence	switch fluorescence ratio
TTATCTACGT	1.07 ± 0.035
ATACGAGTTA	1.02 ± 0.021
TTAAGCCCAT	1 ± 0.011
TGGCTTACAG	1.003 ± 0.0022
ATATTATGGG	0.9979 ± 0.0095
ATGGGTGGTT	0.995 ± 0.032
ATGCAGCAGT	1.46 ± 0.051
TGAACAAGAT	1.01 ± 0.022
CTTTTTTTTC	1.03 ± 0.078
ATGAGCATTC	1.18 ± 0.026
TTCGTCAGGA	0.978 ± 0.036
TGTGGTGGGG	0.996 ± 0.042
GGTGAGGCTG	0.996 ± 0.015
ATCGCGGCCG	1.02 ± 0.04
AAGTCTTAAG	1.04 ± 0.013
CCTTGCGGGG	1.06 ± 0.012
TGTGTTATGT	1.03 ± 0.038
AAGTGAGAAA	0.983 ± 0.066
GGGCTAGGTT	0.986 ± 0.031
TTGGTAAAAA	1.25 ± 0.41
TAGATGTCAG	0.986 ± 0.016
ACCTGGATTG	1.03 ± 0.017
TAACTGGCGT	0.991 ± 0.04
CGATTGCGTG	1 ± 0.05
TAAAAAGATG	1.02 ± 0.044

Sequence	switch fluorescence ratio
AAAATTGTGT	1.01 ± 0.015
GGTATGTCGA	0.954 ± 0.075
TTCACTGGGA	0.9962 ± 0.00098
CGTCGGCGCC	1.09 ± 0.12
AAAGAACACT	1.06 ± 0.037
CTTTTGTGTC	0.9866 ± 0.0071
ATCAATGGCA	0.975 ± 0.035
GTTGGGCTAT	0.9916 ± 0.0024
TCAGGGGTCT	0.994 ± 0.011
TTGAAAAGAT	1.05 ± 0.04
GTCGTATGAT	0.9993 ± 0.0091
TGGTTCCGGG	1.01 ± 0.02
GGGCCAAGTA	0.983 ± 0.033
TGTTGGGTTT	0.998 ± 0.031
ACATATTACT	1.13 ± 0.0066
AAAGGGAGAA	0.971 ± 0.011
CGGAAAATGT	0.962 ± 0.016
ATATCTATTT	0.997 ± 0.019
GGGGGCGATT	0.987 ± 0.017
CAAAATAAGA	1.01 ± 0.017
ACTGGTCTCA	1.002 ± 0.0098
AAAGGATTTA	1.02 ± 0.061
TCTATGGGGT	1 ± 0.019
TATATTTG	0.9883 ± 0.0065
TTTTGGCGTC	0.994 ± 0.023

Sequence	switch fluorescence ratio
TGGGGGACGA	0.954 ± 0.032
GAGTATAGAT	1.001 ± 0.0034
AGGATGGGTG	0.991 ± 0.021
GGGTGAAGGG	0.974 ± 0.021
ACTACGTACA	1.68 ± 0.024
TGAACGAGGG	1.01 ± 0.022
TTTGAGATGT	1.04 ± 0.0048
TTGAGTGAGC	0.988 ± 0.025
ATGATATGCA	1.017 ± 0.003
GGTTAAAGGG	1.07 ± 0.15
TTAGAATTAA	0.9724 ± 0.0063
AAGCGTGGGA	1.02 ± 0.039
TCGAGTCGGT	1.02 ± 0.034
ATCTTGGTCT	1.01 ± 0.045
CGTAGTAGTG	0.993 ± 0.027
GCACCGGCTA	1.16 ± 0.23
ATCAAAAACG	1.01 ± 0.029
CGGGCCTATT	0.98938 ± 0.00074
TTTAGAAGGC	1.08 ± 0.11
TTTTTGAGGG	1.01 ± 0.04
TAGCTGGGGA	1.01 ± 0.033
AGGATAACCC	1.018 ± 0.0064
AGAGCATAGG	1.03 ± 0.048
TAATAGAAGG	0.977 ± 0.0098
ACTTGGCGCT	1.034 ± 0.0095

Sequence	switch fluorescence ratio
CAGTCGGTGG	1 ± 0.031
TAAATGTGCG	0.996 ± 0.031
ATAAAAAGGA	1.0058 ± 0.00029
TGTTTTATCA	0.9742 ± 0.0037
GGGTAGGGAA	0.998 ± 0.016
TTTAGGACTT	0.994 ± 0.021
TTAGATGGGA	1.005 ± 0.0047
AATGGGGGTG	1.02 ± 0.032
GCATTCAGGG	1.09 ± 0.14
TGCGAGTATT	1.038 ± 0.0023
TCGTTTGTAT	0.972 ± 0.005
TGAGGGGGTG	1 ± 0.029
TTGGATTTAT	1.011 ± 0.0093
TTGCTTTTGC	1 ± 0.023
GTTTTAGTGT	0.98716 ± 0.00058
TAGAAAGGGT	1.01 ± 0.041
GGGATACCCT	0.9798 ± 0.00069
ACCTTTTGTG	0.9903 ± 0.0046
AGGTTACAAT	1.04 ± 0.043
TCTACAGTCG	1.02 ± 0.023
TGCCAGTGGG	1.04 ± 0.068
GGCATCAGGC	1.03 ± 0.042
GGTATTAGAT	1.01 ± 0.049
CGTGGATTTA	0.983 ± 0.011
GTTGGAATGG	1.01 ± 0.014

Sequence	switch fluorescence ratio
AGGGTTTTAG	0.994 ± 0.019
TTCCTGTTTC	1.01 ± 0.023
TTGTGTTTAG	1.016 ± 0.0044
ATTCCCAGGG	2.067 ± 0.017
AGTGACGCTC	1.08 ± 0.024
AGTGGGTTGG	0.99 ± 0.014
TCTCACTGCC	1.08 ± 0.028
TAAGGGATGT	0.995 ± 0.049
ATTGGCTAGT	0.966 ± 0.02
AAAAAGTTAG	0.998 ± 0.023
ATAAGGCCTG	1.03 ± 0.075
GGGGTGATTG	0.979 ± 0.0077
GGTGACACAG	0.988 ± 0.017
ACAGAAGATG	1.003 ± 0.0087
AAAGAGTATA	0.9972 ± 0.0036
TCGTTAATGA	1.02 ± 0.02
AGCGCAATGA	3 ± 0.32
TTGCGCTACG	1.01 ± 0.011
TGCTTATCTA	1.016 ± 0.0077
AGATTATGTT	1.01 ± 0.029
TATCTTTGCG	0.965 ± 0.01
TCAGGAAAAG	0.989 ± 0.019
GTGGGAAAAA	1.01 ± 0.0085
GCTGCCAACC	1.11 ± 0.031
CTAGTGTCTC	0.989 ± 0.025

Sequence	switch fluorescence ratio
GAGGCGGACT	1.02 ± 0.015
GCGTCCGACT	0.986 ± 0.06
AACAGCTGTG	0.998 ± 0.013
ATGCTGGGTA	0.997 ± 0.026
CACAGCAGCG	1.048 ± 0.0029
GATGAGTTGA	0.988 ± 0.02
TGAGTGAGGG	1.01 ± 0.018
GCGTTGGGGG	0.995 ± 0.037
TTGCTATCTT	0.983 ± 0.052
TTTGTATAGG	0.98 ± 0.035
GAAGGCGGGA	1.03 ± 0.097
TGGGACGTAC	1.79 ± 0.15
ACGATTAGGG	0.996 ± 0.08
TCGGTGGGGG	1.01 ± 0.051
AAGCGGAGGG	1.02 ± 0.062
GGTTAGATTG	1.01 ± 0.006
TATAAGTACA	1.38 ± 0.04
GTAGGACTTG	0.953 ± 0.025
CCCATTGTTT	1.01 ± 0.022
AGTGTTTGTT	0.9995 ± 0.0052
AGTTTTGGGG	0.981 ± 0.043
CTAATCGCTG	1.05 ± 0.034
GGGTTTGAAG	1 ± 0.025
TAGTTTTTGT	1.01 ± 0.049
GGGGTATGGT	1 ± 0.036

Sequence	switch fluorescence ratio
AAGGTATTAG	0.9926 ± 0.0055
CGTTAGTATT	0.9936 ± 0.00056
TTTGGGCTGT	1.02 ± 0.021
TTGGGGCACT	0.985 ± 0.016
GCTATCATCG	0.997 ± 0.035
AAATTGCTTA	1 ± 0.024
TAATCGGGGG	1.04 ± 0.043
ATATGGATAA	1.01 ± 0.012
AGCGAGGGGA	1.04 ± 0.02
TCCAGCCCGT	1.02 ± 0.027
TTGCTTTTTT	0.992 ± 0.013
GTGGTGGTGG	0.996 ± 0.023
GGGGTTTGGG	0.974 ± 0.028
CCCTGAGGGT	1.01 ± 0.023
TAAAGGCTAC	1.17 ± 0.2
AAGTGGTTGG	0.984 ± 0.024
CGGCTACCCG	0.989 ± 0.049
ACGCAGGACA	1.35 ± 0.031
GATGGAAACT	1.008 ± 0.0072
TGCTGGGTGG	1.01 ± 0.02
TCCGGCGTAT	1.131 ± 0.0055
ACCGACGCGG	2.55 ± 0.34
AGTTAGTAAG	1.01 ± 0.04
AAGGGAGGTT	1 ± 0.027
GCGGAAGGG	0.996 ± 0.0087

Sequence	switch fluorescence ratio
ATGAGAATAG	1.01 ± 0.0016
CGGAACATGC	1.6 ± 0.12
GGAGATATCT	1.11 ± 0.0069
TATTTACGCT	1.05 ± 0.025
GGGTGGGTCA	1.01 ± 0.048
CGTTTCAAGG	0.975 ± 0.016
AACTGGGAGA	0.98933 ± 0.0002
TAATAAACAA	1 ± 0.024
TAACGGAGGT	1.02 ± 0.014
AGGAGCTTGA	1.03 ± 0.018
TCGTTCTGGG	0.996 ± 0.023
TGGATTGTCC	1.03 ± 0.012
TGTGTGTTTG	0.989 ± 0.015
TGGTTTTAAG	0.98 ± 0.024
TAATGGGCGT	1 ± 0.012
TAGCTTAACA	0.979 ± 0.018
ACCCATAGCG	1.017 ± 0.0062
AAAGGGGGGA	0.995 ± 0.029
TTTTTTCCGT	1.07 ± 0.16
AAAATCGAAA	0.99 ± 0.015
GCCGGATCTT	1.01 ± 0.02
GTTAGCTAAT	0.987 ± 0.034
CCAGGCACTG	1.03 ± 0.021
GGGGCATAGT	0.991 ± 0.02
GCATGGTAGC	0.994 ± 0.037
